This is an account of results in article PMC8892516, “Intragenic suppressors unravel the role of the SCREAM ACT-like domain for bHLH partner selectivity in stomatal development” (Proceedings of the National Academy of Sciences of the …, 2022).

First the molecules themselves.
B1: MUTE (1-202), recombinant (natural protein, Arabidopsis thaliana, UniProt Q9M8K6 1-202, looked up)
chain: MSHIAVERNRRRQMNEHLKSLRSLTPCFYIKRGDQASIIGGVIEFIKELQQLVQVLESKKRRKTLNRPSFPYDHQTIEPSSLGAATTRVPFSRIENVMTTSTFKEVGACCNSPHANVEAKISGSNVVLRVVSRRIVGQLVKIISVLEKLSFQVLHLNISSMEETVLYFFVVKIGLECHLSLEELTLEVQKSFVSDEVIVSTN
notes: MUTE, Arabidopsis thaliana, residues 1-202; MUTE (1-202) was cloned both in pGEX-4T-1 (N-terminal GST, thrombin cleaved) and in pET28a (N-terminal His tag); also called purified MUTE; MUTE-HIS; source: E. coli BL21, purified (Ni-NTA, Superdex-200)
B4: SCRM (1-494), recombinant (natural protein, Arabidopsis thaliana, UniProt Q9LSE2 1-494, looked up)
chain: MGLDGNNGGGVWLNGGGGEREENEEGSWGRNQEDGSSQFKPMLEGDWFSSNQPHPQDLQMLQNQPDFRYFGGFPFNPNDNLLLQHSIDSSSSCSPSQAFSLDPSQQNQFLSTNNNKGCLLNVPSSANPFDNAFEFGSESGFLNQIHAPISMGFGSLTQLGNRDLSSVPDFLSARSLLAPESNNNNTMLCGGFTAPLELEGFGSPANGGFVGNRAKVLKPLEVLASSGAQPTLFQKRAAMRQSSGSKMGNSESSGMRRFSDDGDMDETGIEVSGLNYESDEINESGKAAESVQIGGGGKGKKKGMPAKNLMAERRRRKKLNDRLYMLRSVVPKISKMDRASILGDAIDYLKELLQRINDLHNELESTPPGSLPPTSSSFHPLTPTPQTLSCRVKEELCPSSLPSPKGQQARVEVRLREGRAVNIHMFCGRRPGLLLATMKALDNLGLDVQQAVISCFNGFALDVFRAEQCQEGQEILPDQIKAVLFDTAGYAGMI
notes: SCREAM (SCRM, ICE1), Arabidopsis thaliana, At3G26744, residues 1-494; the purification methods tell thrombin cleavage; source: E. coli BL21, purified (glutathione resin, thrombin, Superdex-200); not shown: GST, N-terminal, cleaved

For experiment [1], the target named is GST-fused SCRMΔC (1-404) (Arabidopsis thaliana) (UniProt Q9LSE2). Put plainly: BLI; as a3, samples incubated for 30 min with a 1:4 molar ratio of the TMM promoter DNA fragment. A general note: BLI is a label-free optical method that tracks binding on a fibre tip over time.
The target is the same in experiment [2]. The experiment is described as follows: BLI; as a3, samples incubated for 30 min with a 1:4 molar ratio of the synthetic E-box DNA fragment.
For experiment [3], the target named is B4. Put plainly: ITC; Malvern PEAQ-ITC, 25 °C, PBS pH 7.4; 40 μM SCRM/SCRMΔC injected into 4 μM SPCH/MUTE/FAMA; single binding site model. The note with it: both partners purified.
In a further experiment the target is T1, GST-fused SCRM (1-494) (Arabidopsis thaliana, UniProt Q9LSE2 1-494).
T1 construct: SCREAM (SCRM, ICE1), Arabidopsis thaliana, At3G26744, residues 1-494; GST kept for loading on anti-GST probes; also called GST SCRM; GST-tagged SCRM; source: E. coli BL21, purified (glutathione agarose resin); not shown: GST, N-terminal, kept
T1 sequence (looked up): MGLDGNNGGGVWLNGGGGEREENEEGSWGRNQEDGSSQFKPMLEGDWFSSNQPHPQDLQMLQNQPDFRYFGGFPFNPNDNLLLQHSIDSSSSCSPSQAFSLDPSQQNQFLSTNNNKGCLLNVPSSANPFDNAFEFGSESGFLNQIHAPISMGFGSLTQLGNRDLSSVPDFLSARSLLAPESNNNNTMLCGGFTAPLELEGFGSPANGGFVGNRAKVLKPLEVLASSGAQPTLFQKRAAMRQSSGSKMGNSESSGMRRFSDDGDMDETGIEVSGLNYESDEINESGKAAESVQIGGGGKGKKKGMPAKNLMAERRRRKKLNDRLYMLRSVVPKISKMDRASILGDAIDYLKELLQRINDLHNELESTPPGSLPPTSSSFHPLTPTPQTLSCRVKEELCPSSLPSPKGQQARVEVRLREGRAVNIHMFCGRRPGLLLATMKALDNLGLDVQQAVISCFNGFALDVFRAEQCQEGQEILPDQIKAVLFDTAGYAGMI
Put plainly: BLI; Octet Red96; anti-GST probes loaded with 500 nM GST-SCRM or GST-SCRMΔC; SPCH/MUTE/FAMA as analyte at 3.12-200 nM; 30 °C; 1x PBS with 0.02% Tween 20; no DNA; 1:1 model. Particulars: both partners purified.

A further experiment has as its target T2, SPCH-ACTL (285-364) (Arabidopsis thaliana, UniProt Q700C7 285-364).
T2 construct: also called SPCH ACTL domain; source: E. coli BL21, purified (glutathione resin, thrombin, Superdex-200); not shown: GST, N-terminal, cleaved
T2 sequence (looked up): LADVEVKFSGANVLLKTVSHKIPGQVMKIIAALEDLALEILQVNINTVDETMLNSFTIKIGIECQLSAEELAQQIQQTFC
Put plainly: ITC; Malvern PEAQ-ITC; 150 µM SCRM ACTL/SCRM L484F ACTL injected into 15 µM SPCH ACTL/MUTE ACTL; PBS, pH 7.2 (Table S3; methods: pH 7.4); 25 °C; means of two experiments. Particulars: both partners purified.

The target in the next experiment is T3, MUTE-ACTL (114-202) (Arabidopsis thaliana, UniProt Q9M8K6 114-202).
T3 construct: MUTE, Arabidopsis thaliana, C-terminal ACT-like domain, residues 114-202; also called MUTE ACTL domain; source: E. coli BL21, purified (glutathione resin, thrombin, Superdex-200); not shown: GST, N-terminal, cleaved
T3 sequence (looked up): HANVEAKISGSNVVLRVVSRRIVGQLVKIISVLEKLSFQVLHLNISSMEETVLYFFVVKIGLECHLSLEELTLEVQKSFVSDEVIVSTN
The description is as above. The note with it: both partners purified.

The next experiment addresses T4, SPCH (ΔNSPCH, 98-364) (Arabidopsis thaliana, UniProt Q700C7 98-364).
T4 construct: the only recombinant SPCH with bHLH domain that the methods list is ΔNSPCH (98-364); source: E. coli BL21, purified (glutathione resin, thrombin, Superdex-200); not shown: GST, N-terminal, cleaved
T4 sequence (looked up): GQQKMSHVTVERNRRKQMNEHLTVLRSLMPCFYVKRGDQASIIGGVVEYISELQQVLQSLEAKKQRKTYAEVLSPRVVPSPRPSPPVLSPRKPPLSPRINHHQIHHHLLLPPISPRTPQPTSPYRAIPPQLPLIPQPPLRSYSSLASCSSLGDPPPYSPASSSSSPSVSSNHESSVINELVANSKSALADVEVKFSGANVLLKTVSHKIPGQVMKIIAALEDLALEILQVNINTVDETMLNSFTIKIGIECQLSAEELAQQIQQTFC
The experiment is described as follows: ITC; Malvern PEAQ-ITC; 40 µM SCRM/SCRMΔC injected into 4 µM SPCH/MUTE/FAMA; PBS, pH 7.2 (Table S1; methods: pH 7.4); 25 °C; single binding site model; means of two experiments. Particulars: both partners purified. (In general: Isothermal titration calorimetry measures the heat released or taken up as one component is titrated into another.)

The next experiment has as its target T5, MUTE (1-202) (Arabidopsis thaliana, UniProt Q9M8K6 1-202).
T5 construct: MUTE, Arabidopsis thaliana, residues 1-202; MUTE (1-202) was made both as a GST fusion (pGEX-4T-1, thrombin-cleavable) and with an N-terminal His tag (pET28a); also called MUTE-HIS; MUTE-histag; source: E. coli BL21, purified (Ni-NTA or glutathione resin, Superdex-200)
T5 sequence (looked up): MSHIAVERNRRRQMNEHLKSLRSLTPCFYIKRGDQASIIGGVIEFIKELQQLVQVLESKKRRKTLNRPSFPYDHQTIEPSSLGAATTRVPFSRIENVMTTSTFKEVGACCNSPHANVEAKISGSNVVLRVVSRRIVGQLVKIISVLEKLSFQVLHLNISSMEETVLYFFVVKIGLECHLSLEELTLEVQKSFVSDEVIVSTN
The description is as above. Particulars: both partners purified.

Another experiment has as its target T6, FAMA (ΔNFAMA) (Arabidopsis thaliana, Limits not printed. Start set by analogy with the printed ΔNSPCH 98-364 (one residue before the annotated bHLH). Runs to the native C-terminus. Tag or fusion carrier omitted.).
T6 chain: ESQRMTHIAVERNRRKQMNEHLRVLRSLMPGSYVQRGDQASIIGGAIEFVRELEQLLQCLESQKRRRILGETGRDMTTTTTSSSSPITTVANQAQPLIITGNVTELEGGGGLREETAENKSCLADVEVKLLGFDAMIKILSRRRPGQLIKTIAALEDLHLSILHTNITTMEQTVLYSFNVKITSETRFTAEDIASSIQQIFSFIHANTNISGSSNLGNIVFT
The description is as above. Particulars: both partners purified.

The next experiment deals with T7, ΔNFAMA, recombinant (Arabidopsis thaliana, Limits not printed. Start set by analogy with the printed ΔNSPCH 98-364, which starts one residue before its annotated bHLH (99); FAMA bHLH is 194-245. Runs to the native C-terminus, including the ACT).
T7 chain: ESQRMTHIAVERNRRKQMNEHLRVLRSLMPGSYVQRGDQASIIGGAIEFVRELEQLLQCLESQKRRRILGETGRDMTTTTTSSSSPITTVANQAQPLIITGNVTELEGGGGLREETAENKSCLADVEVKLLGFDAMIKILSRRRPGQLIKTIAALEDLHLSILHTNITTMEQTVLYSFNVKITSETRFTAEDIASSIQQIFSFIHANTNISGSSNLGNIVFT
Put plainly: ITC; Malvern PEAQ-ITC, 25 °C, PBS pH 7.4; 40 μM SCRM/SCRMΔC injected into 4 μM SPCH/MUTE/FAMA; single binding site model. The note with it: both partners purified.

Experiment [4] concerns the target T8, ΔNSPCH (98-364), recombinant (Arabidopsis thaliana, UniProt Q700C7 98-364).
T8 construct: BLI and ITC name it only SPCH; ΔNSPCH (98-364) is the only long recombinant SPCH construct that the methods list; also called purified SPCH; source: E. coli BL21, purified (glutathione resin, thrombin, Superdex-200); not shown: GST, N-terminal, cleaved
T8 sequence (looked up): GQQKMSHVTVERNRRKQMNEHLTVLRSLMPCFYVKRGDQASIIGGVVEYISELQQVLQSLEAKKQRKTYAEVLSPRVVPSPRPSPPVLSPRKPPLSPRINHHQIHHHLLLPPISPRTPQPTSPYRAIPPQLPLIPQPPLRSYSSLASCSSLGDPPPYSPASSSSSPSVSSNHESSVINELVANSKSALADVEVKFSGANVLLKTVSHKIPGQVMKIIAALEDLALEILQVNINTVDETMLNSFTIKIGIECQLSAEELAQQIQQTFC
The experiment is described as above. The note with it: both partners purified.

The target in experiment [5] is B1. Described as above. The note with it: both partners purified.

Broadly, the Kd is the constant that tells how readily two partners part at equilibrium. With B1, the Kd stood at 565 nM in experiment [1], 545 nM in experiment [2], 10.5 ± 2.1 nM in experiment [3] and 7.3 ± 1.5 nM in the experiment with GST-fused SCRM (1-494).

B2: SCRM ACTL (405-494) (domain or fragment, Arabidopsis thaliana, UniProt Q9LSE2 405-494, looked up)
chain: KGQQARVEVRLREGRAVNIHMFCGRRPGLLLATMKALDNLGLDVQQAVISCFNGFALDVFRAEQCQEGQEILPDQIKAVLFDTAGYAGMI
notes: SCREAM (SCRM, ICE1), Arabidopsis thaliana, At3G26744, C-terminal ACT-like domain, residues 405-494; also called SCRM ACTL domain; source: E. coli BL21, purified (glutathione resin, Superdex-200)
By stoichiometry N is commonly meant a count of units in the complex or per binding partner. With B2, the “stoichiometry N” value with SPCH-ACTL (285-364) and with MUTE-ACTL (114-202) was 0.95 in each case.

B3: SCRM (1-494), GST removed (natural protein, Arabidopsis thaliana, UniProt Q9LSE2 1-494, looked up)
chain: MGLDGNNGGGVWLNGGGGEREENEEGSWGRNQEDGSSQFKPMLEGDWFSSNQPHPQDLQMLQNQPDFRYFGGFPFNPNDNLLLQHSIDSSSSCSPSQAFSLDPSQQNQFLSTNNNKGCLLNVPSSANPFDNAFEFGSESGFLNQIHAPISMGFGSLTQLGNRDLSSVPDFLSARSLLAPESNNNNTMLCGGFTAPLELEGFGSPANGGFVGNRAKVLKPLEVLASSGAQPTLFQKRAAMRQSSGSKMGNSESSGMRRFSDDGDMDETGIEVSGLNYESDEINESGKAAESVQIGGGGKGKKKGMPAKNLMAERRRRKKLNDRLYMLRSVVPKISKMDRASILGDAIDYLKELLQRINDLHNELESTPPGSLPPTSSSFHPLTPTPQTLSCRVKEELCPSSLPSPKGQQARVEVRLREGRAVNIHMFCGRRPGLLLATMKALDNLGLDVQQAVISCFNGFALDVFRAEQCQEGQEILPDQIKAVLFDTAGYAGMI
notes: SCREAM (SCRM, ICE1), Arabidopsis thaliana, At3G26744, residues 1-494; Used for ITC; the methods tell thrombin cleavage of the GST-fused proteins in general, not for ITC by name; also called SCREAM; ICE1; source: E. coli BL21, purified (glutathione resin, thrombin, Superdex-200); not shown: GST, N-terminal, cleaved
As for B3, the “stoichiometry N” value was found to be 1.02 with SPCH (ΔNSPCH, 98-364); 1.03 with MUTE (1-202); 0.91 with FAMA (ΔNFAMA).
Take B4: the “stoichiometry N” value in the experiment with ΔNFAMA, recombinant came out at 1; in [4], 1; in experiment [5], 1.
